In US20030216345A1:

Target: acetylated α-tubulin
Test: cell-based or functional assay

histone deacetylase 6 (HDAC6), full-length, His6 fused at N-terminal (from UniProt Q9UBN7 1-1215)
decrease in degree of acetylation of α-tubulin (Western blot of HeLa cells overexpressing HDAC6): 50%
